Laboratory results: paper PMC5039489
One block for each molecule: values may come before it.

Assays:
[1] = target: CK2α-DBCO545 (human protein kinase CK2α subunit with pAzF at position 239, coupled to DBCO545) (human) (UniProt P68400)
[2] = target: CK2α-DBCO-Sulfo-Cy5 (human protein kinase CK2α subunit with pAzF at position 239, coupled to DBCO-Sulfo-Cy5) (human) (UniProt P68400); test: MST; CK2α-DBCO-Sulfo-Cy5 constant (65 nM), αS1-casein titrated from 0.76 nM to 12.50 µM; kinase buffer (50 mM Tris/HCl pH 8.5, 25 mM NaCl, 20 mM MgCl2) with 0.1% Tween-20; samples incubated at 37 °C for 90 min; recorded at 30 °C; Monolith NT.115; three independent experiments
[3] = target: CK2β autotransporter fusion protein (CK2β-AT), displayed on the surface of E. coli by Autodisplay (human); test: flow cytometry on cells; E. coli BL21(DE3) cells displaying the protein by Autodisplay (OD578 = 1, 20 µL) incubated with 10 µL purified CK2α-DBCO545 for 60 min at 37 °C, washed three times with PBS; 561 nm laser; 50,000 cells

- phosphorylation activity on the substrate peptide … by capillary electrophoresis: CK2α-DBCO545 with purified CK2β added in a 1:1 ratio against CK2α-DBCO545 alone [1]: 8 fold
Molecule: purified regulatory CK2β-subunit (from UniProt P67870 1-215) (natural protein)

- Kd [2]: 631 nM
B1: human αS1-casein (natural protein)
chain: RPKLPLRYPERLQNPSESSEPIPLESREEYMNGMNRQRNILREKQTDEIKDTRNESTQNCVVAEPEKMESSISSSSEEMSLSKCAEQFCRLNEYNQLQLQAAHAQEQIRRMNENSHVQVPFQQLNQLAAYPYAVWYYPQIMQYVPFPPFSDISNPTAHENYEKNNVMLQW

- mean fluorescence intensity (mF) [3]: 3800
B2: CK2α-DBCO545 (human protein kinase CK2α subunit with pAzF at position 239, coupled to DBCO545) (enzyme)
chain: MSGPVPSRARVYTDVNTHRPREYWDYESHVVEWGNQDDYQLVRKLGRGKYSEVFEAINITNNEKVVVKILKPVKKKKIKREIKILENLRGGPNIITLADIVKDPVSRTPALVFEHVNNTDFKQLYQTLTDYDIRFYMYEILKALDYCHSMGIMHRDVKPHNVMIDHEHRKLRLIDWGLAEFYHPGQEYNVRVASRYFKGPELLVDYQMYDYSLDMWSLGCMLASMIFRKEPFFHGHDN
modifications: para azidophenylalanine (pAzF) at 239, coupled to dibenzylcyclooctyne-fluor 545 (DBCO545) by SPAAC click reaction
